Results: patent publication US20160200782A1 (MOERAE MATRIX, published 2016)

T1: PKCµ(h) (human, UniProt Q15139 1-912, limits assumed)
T1 sequence (looked up): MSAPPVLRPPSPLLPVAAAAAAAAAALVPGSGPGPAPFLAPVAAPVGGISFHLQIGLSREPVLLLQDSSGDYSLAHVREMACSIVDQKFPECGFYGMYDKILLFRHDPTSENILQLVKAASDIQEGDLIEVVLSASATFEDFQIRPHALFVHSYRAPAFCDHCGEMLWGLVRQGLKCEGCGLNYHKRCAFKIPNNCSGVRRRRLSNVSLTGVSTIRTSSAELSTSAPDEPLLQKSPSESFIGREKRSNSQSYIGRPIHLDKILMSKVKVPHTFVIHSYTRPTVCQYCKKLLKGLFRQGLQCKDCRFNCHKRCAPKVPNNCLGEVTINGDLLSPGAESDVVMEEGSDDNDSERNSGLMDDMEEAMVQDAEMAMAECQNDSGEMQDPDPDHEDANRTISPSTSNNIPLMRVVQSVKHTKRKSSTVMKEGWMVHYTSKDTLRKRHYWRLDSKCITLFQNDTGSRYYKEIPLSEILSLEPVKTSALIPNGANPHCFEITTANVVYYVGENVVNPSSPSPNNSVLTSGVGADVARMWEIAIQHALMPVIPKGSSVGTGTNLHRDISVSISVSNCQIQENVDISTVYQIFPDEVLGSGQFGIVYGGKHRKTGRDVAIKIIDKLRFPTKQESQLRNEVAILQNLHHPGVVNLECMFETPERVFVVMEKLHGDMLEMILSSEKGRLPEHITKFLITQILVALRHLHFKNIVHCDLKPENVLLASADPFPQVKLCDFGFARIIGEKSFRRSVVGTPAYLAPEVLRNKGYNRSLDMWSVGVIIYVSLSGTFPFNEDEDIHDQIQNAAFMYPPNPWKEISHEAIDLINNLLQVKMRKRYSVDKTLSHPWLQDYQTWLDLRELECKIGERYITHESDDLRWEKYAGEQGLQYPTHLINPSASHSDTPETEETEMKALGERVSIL

T2: MRCKβ(h) (human, UniProt Q9Y5S2 1-473, limits assumed)
T2 sequence (looked up): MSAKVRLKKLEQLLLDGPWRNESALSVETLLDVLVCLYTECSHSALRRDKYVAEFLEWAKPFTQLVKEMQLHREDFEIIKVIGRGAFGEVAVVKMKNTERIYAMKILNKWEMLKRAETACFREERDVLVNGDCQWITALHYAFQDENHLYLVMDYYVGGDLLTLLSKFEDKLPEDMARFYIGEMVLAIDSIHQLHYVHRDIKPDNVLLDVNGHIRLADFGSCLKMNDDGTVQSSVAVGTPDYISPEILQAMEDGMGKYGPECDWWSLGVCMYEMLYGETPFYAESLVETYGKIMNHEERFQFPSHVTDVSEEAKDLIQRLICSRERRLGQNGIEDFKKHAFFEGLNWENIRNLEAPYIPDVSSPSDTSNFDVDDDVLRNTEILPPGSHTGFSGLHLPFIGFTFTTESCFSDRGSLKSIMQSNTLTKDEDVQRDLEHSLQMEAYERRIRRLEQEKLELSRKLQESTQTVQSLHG

T3: Bmx(h) (human, UniProt P51813 1-675, limits assumed)
T3 sequence (looked up): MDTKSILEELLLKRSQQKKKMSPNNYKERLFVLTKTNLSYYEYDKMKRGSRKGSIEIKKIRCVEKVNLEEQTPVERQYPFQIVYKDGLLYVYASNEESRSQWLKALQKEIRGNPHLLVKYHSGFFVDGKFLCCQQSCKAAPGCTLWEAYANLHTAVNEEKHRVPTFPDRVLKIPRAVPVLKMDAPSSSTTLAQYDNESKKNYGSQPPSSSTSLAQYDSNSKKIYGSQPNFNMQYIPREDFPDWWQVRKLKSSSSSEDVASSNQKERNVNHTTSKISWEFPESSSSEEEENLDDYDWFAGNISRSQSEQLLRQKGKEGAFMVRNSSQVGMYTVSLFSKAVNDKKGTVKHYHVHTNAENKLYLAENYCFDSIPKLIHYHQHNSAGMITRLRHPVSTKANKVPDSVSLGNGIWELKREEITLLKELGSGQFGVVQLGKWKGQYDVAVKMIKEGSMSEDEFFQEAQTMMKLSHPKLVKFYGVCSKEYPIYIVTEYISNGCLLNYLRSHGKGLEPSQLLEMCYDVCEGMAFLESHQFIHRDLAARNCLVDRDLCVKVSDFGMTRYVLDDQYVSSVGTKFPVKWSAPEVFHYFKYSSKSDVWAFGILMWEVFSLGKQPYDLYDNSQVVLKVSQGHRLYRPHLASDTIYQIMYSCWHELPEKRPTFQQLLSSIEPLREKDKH


What was measured:
Assay in all cases: cell-based or functional assay
CK1γ3(h) = CK1γ3(h) (human, UniProt Q9Y6M4 1-447)
PKCµ(h) = biological target: T1, PKCµ(h)
PAK5(h) = PAK5(h) (human, UniProt Q9P286 1-719, limits assumed)
CaMKIIγ(h) = CaMKIIγ(h) (human, UniProt Q13555 1-558, limits assumed)
cKit(V654A)(h) = cKit(V654A)(h) (human, UniProt P10721 544-976, limits assumed)
PKBγ(h) = PKBγ(h) (human, UniProt Q9Y243 1-479, limits assumed)
MRCKβ(h) = biological target: T2, MRCKβ(h)
CK1γ2(h) = CK1γ2(h) (human, UniProt P78368 1-415)
ZIPK(h) = ZIPK(h) (human, UniProt O43293 1-454, limits assumed)
Pim-2(h) = Pim-2(h) (human, UniProt Q9P1W9 1-311)
EGFR(L858R)(h) = EGFR(L858R)(h) (human, UniProt P00533 696-1210, limits assumed)
Bmx(h) = biological target: T3, Bmx(h)
Plk1(h) = Plk1(h) (human, UniProt P53350 1-603, limits assumed)
SRPK2(h) = SRPK2(h) (human, UniProt P78362 1-688, limits assumed)
CK2α2(h) = CK2α2(h) (human, UniProt P19784 1-350)
PKCη(h) = PKCη(h) (human, UniProt P24723 1-683)
Note: test concentration or dose not given here.

| % activity (CK1γ3(h)) [%] | % activity (PKCµ(h)) [%] | % activity (PAK5(h)) [%] | % activity (CaMKIIγ(h)) [%] | % activity (cKit(V654A)(h)) [%] | % activity (PKBγ(h)) [%] | % activity (MRCKβ(h)) [%] | % activity (CK1γ2(h)) [%] | % activity (ZIPK(h)) [%] | % activity (Pim-2(h)) [%] | % activity (EGFR(L858R)(h)) [%] | % activity (Bmx(h)) [%] | % activity (Plk1(h)) [%] | % activity (SRPK2(h)) [%] | % activity (CK2α2(h)) [%] | % activity (PKCη(h)) [%] | Binder |
| --- | --- | --- | --- | --- | --- | --- | --- | --- | --- | --- | --- | --- | --- | --- | --- | --- |
| 125 | 22 | 110 | 5 | 134 | 20 | 83 | 123 | 28 | 76 | – | – | – | – | – | – | FAKLAARLYRKALARQLGVAA [MMI-0300] |
| – | 14 | – | 3 | 150 | 41 | 71 | – | 13 | 92 | 52 | 26 | 119 | 97 | 96 | 98 | KAFAKLAARLYRKALARQLGVAA [MMI-0400] |
